# Experimental data taken from US20110015139A1 (HE HENRY M JACKSON FOUNDATION FOR THE ADVANCEMENT OF …, published 2011).
# Molecular target: amyloid beta (Aβ) peptide, incorporated in membranes as the Aβ channel
# Test: cell-based or functional assay
Binder,"EC50 of protection of PC12 cells from Aβ cytotoxicity (LDH release), as a multiple of the EC50 of NAHIS04","concentration required for 50% protection (EC50) of PC12 cells from Aβ cytotoxicity, LDH release assay, 3 days","speed of 50% reduction of the flow of ionic charges, relative to NAHIS02"
SGYEVHH [NA4],2 to 3 times,–,–
EVHHQKL [NA7],2 to 3 times,–,–
Ac-HHHH-NH2 [NAHIS04 (Ac-His-His-His-His-CONH2)],–,< 1 µM,8 fold
